This is an account of results in publication PMC6791870, “Switch of the interactions between the ribosomal stalk and EF1A in the GTP- and GDP-bound conformations” (Scientific Reports, 2019).

Conditions in all cases: both partners purified
The target of test [1] is T1, Pyrococcus horikoshii elongation factor aEF1A (PhoEF1A) (P. horikoshii, UniProt O59153 1-428).
T1 construct: elongation factor 1-alpha (aEF1A) of Pyrococcus horikoshii; the nucleotide is named in the assay's format; also called PhoEF1A•GTP; PhoEF1A•GDP
T1 sequence: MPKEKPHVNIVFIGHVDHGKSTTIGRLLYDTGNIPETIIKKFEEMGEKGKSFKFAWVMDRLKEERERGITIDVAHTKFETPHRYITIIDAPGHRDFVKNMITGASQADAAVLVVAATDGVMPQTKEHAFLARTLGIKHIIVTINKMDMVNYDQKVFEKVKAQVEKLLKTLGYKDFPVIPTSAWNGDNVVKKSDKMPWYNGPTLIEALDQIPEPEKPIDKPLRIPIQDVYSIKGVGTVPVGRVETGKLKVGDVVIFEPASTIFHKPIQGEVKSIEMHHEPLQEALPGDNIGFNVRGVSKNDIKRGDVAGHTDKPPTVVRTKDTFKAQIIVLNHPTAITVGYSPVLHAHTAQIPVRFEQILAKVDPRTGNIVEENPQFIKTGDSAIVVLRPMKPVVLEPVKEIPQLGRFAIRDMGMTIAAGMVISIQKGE
The experiment in a line: pull-down; MBP-P1 fusion held on amylose resin; EF1A (1,000 pmol), Pelota (1,000 pmol) and equal amounts of MBP-P1 in 100 µl PD buffer (25 mM Tris-HCl pH 8.0, 200 mM NaCl, 10 mM MgCl2, 1 mM GTP), 4 °C, 90 min; eluted with 50 mM maltose; SDS-PAGE, CBB staining.

Test [2] concerns the target T2, Aeropyrum pernix elongation factor aEF1A (ApeEF1A) (Aeropyrum pernix, UniProt Q9YAV0 1-437).
T2 construct: elongation factor 1-alpha (aEF1A) of Aeropyrum pernix; also called ApeEF1A•GTP; wild type ApeEF1A
T2 sequence (looked up): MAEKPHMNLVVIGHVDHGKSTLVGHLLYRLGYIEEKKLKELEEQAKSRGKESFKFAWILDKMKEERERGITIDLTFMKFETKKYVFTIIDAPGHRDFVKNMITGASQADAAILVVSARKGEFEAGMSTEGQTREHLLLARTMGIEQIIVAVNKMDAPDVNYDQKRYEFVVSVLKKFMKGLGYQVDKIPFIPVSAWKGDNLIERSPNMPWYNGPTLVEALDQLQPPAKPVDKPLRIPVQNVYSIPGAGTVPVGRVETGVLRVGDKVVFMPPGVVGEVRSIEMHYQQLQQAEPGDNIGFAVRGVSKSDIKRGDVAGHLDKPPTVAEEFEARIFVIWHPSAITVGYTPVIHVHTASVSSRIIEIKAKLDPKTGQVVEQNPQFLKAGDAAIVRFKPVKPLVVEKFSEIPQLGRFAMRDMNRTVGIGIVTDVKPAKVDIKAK
Description: crystal structure; ApeP1C17•ApeEF1A•GTP•ApePelota complex, sitting drop vapor diffusion at 20 °C, 3.0 Å.

In test [3] the target is T3, PhoEF1A•GTP•PfuPelota complex (P. horikoshii | Pyrococcus furiosus, UniProt O59153 1-428; Q8U150 1-356).
T3 construct: aPelota of Pyrococcus furiosus; Complex of m2 (GTP form) and m3, titrated as a complex in fluorescence polarisation; also called aEF1A•GTP•aPelota; source: E. coli, each protein purified, then complexed with GTP
T3 sequence 1: T1 sequence
T3 sequence 2: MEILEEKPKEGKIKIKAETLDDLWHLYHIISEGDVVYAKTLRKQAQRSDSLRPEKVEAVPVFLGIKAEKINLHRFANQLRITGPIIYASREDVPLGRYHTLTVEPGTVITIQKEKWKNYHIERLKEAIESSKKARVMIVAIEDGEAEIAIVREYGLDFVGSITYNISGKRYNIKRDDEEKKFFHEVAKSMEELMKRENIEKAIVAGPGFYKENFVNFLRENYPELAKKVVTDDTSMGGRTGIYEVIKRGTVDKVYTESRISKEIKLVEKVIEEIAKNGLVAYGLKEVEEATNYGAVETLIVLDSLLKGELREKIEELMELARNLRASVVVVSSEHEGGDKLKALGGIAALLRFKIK
Description: fluorescence polarisation; FITC-labelled peptide (50 nM) with 0-160 µM PhoEF1A•GTP•PfuPelota complex in FP buffer (20 mM HEPES-KOH pH 7.6, 10 mM MgCl2, 150 mM KCl, 0.1 mg/ml BSA), 25 °C; one site specific binding fit. For orientation: In fluorescence polarisation assays a small probe gives low polarisation when free and higher when bound to something large.

Test [4] concerns the target T1, Pyrococcus horikoshii elongation factor …. The experiment in a line: fluorescence polarisation; FITC-labelled PhoP1C14 with increasing PhoEF1A•GDP complex; same assay as for the GTP complex.
Test [5] has as its target T2, Aeropyrum pernix elongation factor …. Description: pull-down; MBP-P1 fusion held on amylose resin; EF1A (1,000 pmol), Pelota (1,000 pmol) and equal amounts of MBP-P1 in 100 µl PD buffer (25 mM Tris-HCl pH 8.0, 200 mM NaCl, 10 mM MgCl2, 1 mM GTP), 4 °C, 90 min; eluted with 50 mM maltose; SDS-PAGE, CBB staining.

Primed or numbered codes have the meaning given here. Where no end group is shown, it is not given here. FITC′ = fluorescein isothiocyanate label

B1: maltose-binding protein fused to the C-terminal 14 amino acid sequence of PhoP1 (MBP-PhoP1C14) (domain or fragment, P. horikoshii)
chain: SEEEALAGLSALFG
notes: C-terminal 14 residues of P. horikoshii ribosomal stalk protein aP1; made by removing residues 61-94 from pMAL-c4x-aP1[61-108]; the 14 residues are identical in both species; Vector pMAL-c4x; also called MBP-PfuP1C14; not shown: MBP, N-terminal, kept
With B1, the binding result in test [1] is on record as “binds”.

B2: C-terminal 17-mer peptide of A. pernix aP1 (ApeP1C17) (peptide)
peptide: KKEEEVDLSGLSGMFGF
notes: C-terminal 17 residues of Aeropyrum pernix ribosomal stalk protein aP1 (ends at F111); also called aP1C17; aP1-CTD; source: synthetic peptide (Hokkaido System Science)
With B2, the binding result in test [2] is recorded as “binds”.

B3: Pyrococcus furiosus aPelota (PfuPelota) (natural protein, UniProt Q8U150 1-356, looked up)
chain: T3 sequence 2
notes: aPelota of Pyrococcus furiosus
As for B3, in test [1], the binding result is listed as “binds”.

B4: C-terminal 14-mer peptide of P. horikoshii aP1 (PhoP1C14), FITC-labelled (peptide)
peptide: {FITC′}-SEEEALAGLSALFG
notes: C-terminal 14 residues of P. horikoshii ribosomal stalk protein aP1 (last residues L106, F107, G108); also called WT; C-terminal peptide; source: synthetic peptide (Hokkaido System Science)
What is called Kd is the equilibrium constant for the complex coming apart. Take B4: the Kd in test [3] was 23.6 µM; in test [4], 10.4 µM.

B5: N-terminal MBP fused with the C-terminal 15 amino acid residues of A. pernix aP1 (MBP-ApeP1C15) (domain or fragment)
chain: EEEVDLSGLSGMFGF
notes: Vector pMAL-c4x, EcoRI-PstI; not shown: MBP, N-terminal, kept
For the molecule B5, in test [5], the binding result was “binds”.

B6: Aeropyrum pernix aPelota (ApePelota) (natural protein, A. pernix, UniProt Q9YAZ5 1-356, looked up)
chain: MRVEVLDNKRRIVRLRPESEEDLWLLRITLRPGDVVRIRTSRDVPVGSGRKERVVMTLRIRLDSIEFQPFTGKLRISGIVVEGPDEFGVKGRRHSTAVSIGTWLVVERDKGWSEQELERLASGRARGTAVIAAVDYDEFALAVLAGHGMKILEDTSARLPGKDDPSREQEVEKYVDRAAKRIVEEAARHRSPIAVIAGPGQLKTSVAEKVQRAMPSLKVATVDTSMGGVAGVREALRRESVTRILRELSIVEAEGVLEEFLRRIAKSRDTVAYTPGEVLAVARMGAVDTVLLVDTLLHSPDDAVREAVDEALRLVESMGGRVIIIPGDSPAGERLVSFGGVIALLRYPVPQEARRL
notes: aPelota of Aeropyrum pernix
On to B6, for which, in test [2], the binding result is listed as “binds”.
